Experimental data published in the supplement of paper PMC7877785.
± gives the uncertainty stated by the source.

Assay: self-splicing fitness, log relative to wild type (ln ratio); higher = more splicing; Tetrahymena group I intron in knt gene, E. coli kanamycin selection, DiMSum; sequences stand for … in CUCUCU…GGAGGGAAAAGUUAUCAGGCAUGCACCUGGUAGCUAGUCUUUAAACCAAUAGAUUGCAUCGGUUUAAAAGGCAAGACCGUCAAAUUGCGGGAAAGGGGUCAACAGCCGUUCAGUACCAAGUCUCAGGGGAAACUUUGAGAUGGCCUUGCAAAGGGUAUGGUAAUAAGCUGACGGACAUGGUCCUAACCACGCAGCCAAGUCCUAAGUCAACAGAUCUUCUGUUGAUAUGGAUGCAGUUCACAGACUAAAUGUCGGUCGGGGAAGAUGUAUUCUUCUCAUAAGAUAUAGUCGGACCUCUCCUUAAUGGGAGCUAGCGGAUGAAGUGAUGCAACACUGGAGCCGCUGGGAACUAAUUUGUAUGCGAAAGUAUAUUGAUUAGUUUUGGAGUACUCGUGGUCG
Outline: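 The eight P1ex-region nucleotides of an intron in the knt kanamycin-resistance gene on pET-22b(+) were all randomised and the library put into E. coli BL21(DE3). Six replicate transformations were grown overnight at 37°C or 30°C on LB agar with or without 25 μg/mL kanamycin, together with 100 μg/mL carbenicillin, 50 μM IPTG and 0.2% rhamnose. Colonies were pooled and amplicon-sequenced on an Illumina HiSeq 2500. Fitness from DiMSum is the error-weighted combination of wild-type-normalised replicate fold changes, kanamycin over none.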

| Sequence | self-splicing fitness (ln) (30 °C) | self-splicing fitness (ln) (37 °C) |
| --- | --- | --- |
| ACACAGCAAUAUUACGACCG | -0.326 ± 0.077 | 0.342 ± 0.11 |
| ACACAGCAAUAUUACGACCU | -0.472 ± 0.069 | 0.384 ± 0.092 |
| ACACAGCAAUAUUACGCAUG | -1.04 ± 0.075 | -0.692 ± 0.081 |
| ACACAGCAAUAUUACGCAUU | -2.47 ± 0.081 | -1.5 ± 0.087 |
| ACACAGCAAUAUUACGCCCA | -1.49 ± 0.075 | -0.603 ± 0.073 |
| ACACAGCAAUAUUACGCCCU | -0.215 ± 0.072 | -0.0145 ± 0.077 |
| ACACAGCAAUAUUACGGCGU | -0.67 ± 0.07 | -0.414 ± 0.093 |
| ACACAGCAAUAUUACGGCUG | -2.88 ± 0.12 | -1.42 ± 0.1 |
| ACACAGCAAUAUUACGUAGU | -2.48 ± 0.077 | -1.71 ± 0.088 |
| ACACAGCAAUAUUACGUCGC | -4.02 ± 0.21 | -2.56 ± 0.17 |
| ACACAGCAAUAUUACGUGAC | -4.1 ± 0.13 | -2.05 ± 0.11 |
| ACACAGCAAUAUUACGUUCG | -0.803 ± 0.05 | -1.13 ± 0.064 |
| ACAGAGCAAUAUUACGAAGC | -2.69 ± 0.26 |  |
| ACAGAGCAAUAUUACGACUC | -2.94 ± 0.33 | -2.47 ± 0.24 |
| ACAGAGCAAUAUUACGAUAA | -4.19 ± 0.46 | -2.51 ± 0.36 |
| ACAGAGCAAUAUUACGAUUC | -2.88 ± 0.27 | -1.72 ± 0.31 |
| ACAGAGCAAUAUUACGCAAC |  | -2.1 ± 0.41 |
| ACAGAGCAAUAUUACGCACC | -3.6 ± 0.47 | -2.04 ± 0.38 |
| ACAGAGCAAUAUUACGCCAA | -2.92 ± 0.22 | -2.78 ± 0.32 |
| ACAGAGCAAUAUUACGCCUU | -3.76 ± 0.42 | -1.9 ± 0.3 |
| ACAGAGCAAUAUUACGCGCC | -3.3 ± 0.36 | -1.83 ± 0.42 |
| ACAGAGCAAUAUUACGCGCU |  | -1.91 ± 0.2 |
| ACAGAGCAAUAUUACGCUCU | -3.01 ± 0.24 | -2.41 ± 0.49 |
| ACAGAGCAAUAUUACGCUUG | -1.62 ± 0.12 | -1.63 ± 0.17 |
| ACAGAGCAAUAUUACGGGAA | -2.54 ± 0.19 | -2.98 ± 0.34 |

| Sequence | self-splicing fitness (ln) (30 °C) | self-splicing fitness (ln) (37 °C) |
| --- | --- | --- |
| ACAGAGCAAUAUUACGGUCG | -2.29 ± 0.11 | -1.36 ± 0.16 |
| ACAGAGCAAUAUUACGGUCU | -3.77 ± 0.18 | -2.48 ± 0.15 |
| ACAGAGCAAUAUUACGUCAU | -3.71 ± 0.17 | -2.75 ± 0.27 |
| ACAGAGCAAUAUUACGUCCG | -3.65 ± 0.21 | -2.52 ± 0.27 |
| ACAGAGCAAUAUUACGUCGU | -3.11 ± 0.16 | -0.947 ± 0.15 |
| ACAGAGCAAUAUUACGUGCA | -3.73 ± 0.29 | -1.57 ± 0.25 |
| ACAGAGCAAUAUUACGUGCC | -3.54 ± 0.46 |  |
| ACAGAGCAAUAUUACGUGUC | -3.27 ± 0.22 | -2.94 ± 0.38 |
| ACAUAGCAAUAUUACGAAUU | -3.3 ± 0.2 | -1.26 ± 0.14 |
| ACAUAGCAAUAUUACGACGA | -0.942 ± 0.068 | -0.294 ± 0.078 |
| ACAUAGCAAUAUUACGAGAA | -2.62 ± 0.29 | -2.35 ± 0.25 |
| ACAUAGCAAUAUUACGAGAG | -3.57 ± 0.28 | -2.55 ± 0.18 |
| ACAUAGCAAUAUUACGAGCG | -0.74 ± 0.12 | -0.0992 ± 0.12 |
| ACAUAGCAAUAUUACGAGGA |  | -2.56 ± 0.29 |
| ACAUAGCAAUAUUACGAGUG | -1.16 ± 0.073 | -1.05 ± 0.09 |
| ACAUAGCAAUAUUACGAUCC | -1.77 ± 0.15 | -0.941 ± 0.16 |
| ACAUAGCAAUAUUACGAUCU | 0.0431 ± 0.089 | -0.196 ± 0.1 |
| ACAUAGCAAUAUUACGCAUC | -3.98 ± 0.34 | -1.3 ± 0.14 |
| ACAUAGCAAUAUUACGCCAU | -3.25 ± 0.28 | -2.08 ± 0.22 |
| ACAUAGCAAUAUUACGCCGG | -0.986 ± 0.14 | 0.077 ± 0.21 |
| ACAUAGCAAUAUUACGCGGG | -3.09 ± 0.12 | -1.64 ± 0.13 |
| ACAUAGCAAUAUUACGCUGA | -1.47 ± 0.093 | -0.74 ± 0.12 |
| ACAUAGCAAUAUUACGGACC | -1.56 ± 0.12 | -1.84 ± 0.23 |
| ACAUAGCAAUAUUACGGGUU | -2.41 ± 0.08 | -1.77 ± 0.11 |
| ACAUAGCAAUAUUACGGUAG | -4.45 ± 0.42 | -2.89 ± 0.32 |

| Sequence | self-splicing fitness (ln) (30 °C) | self-splicing fitness (ln) (37 °C) |
| --- | --- | --- |
| ACAUAGCAAUAUUACGGUCA | -0.873 ± 0.13 | 0.165 ± 0.13 |
| ACAUAGCAAUAUUACGGUUA | -1.05 ± 0.098 | -0.751 ± 0.095 |
| ACAUAGCAAUAUUACGUAGU | -2.54 ± 0.098 | -2.32 ± 0.12 |
| ACAUAGCAAUAUUACGUCAC | -3.32 ± 0.18 | -2.93 ± 0.28 |
| ACAUAGCAAUAUUACGUCAG | -2.66 ± 0.13 | -3.18 ± 0.18 |
| ACAUAGCAAUAUUACGUCCA | -1.24 ± 0.14 | -0.641 ± 0.17 |
| ACAUAGCAAUAUUACGUGCC | -2.1 ± 0.15 | -0.986 ± 0.19 |
| ACAUAGCAAUAUUACGUUAA | -3.09 ± 0.19 | -1.36 ± 0.15 |
| ACAUAGCAAUAUUACGUUAC | -1.52 ± 0.22 |  |
| ACCAAGCAAUAUUACGAACA | -2.91 ± 0.16 | -0.543 ± 0.089 |
| ACCAAGCAAUAUUACGAAUU | -3.46 ± 0.17 | -2.13 ± 0.14 |
| ACCAAGCAAUAUUACGAGCU | -1.62 ± 0.056 | -0.791 ± 0.072 |
| ACCAAGCAAUAUUACGAGGA | -3.15 ± 0.19 | -2.7 ± 0.16 |
| ACCAAGCAAUAUUACGAGGG | -2.88 ± 0.15 | -1.49 ± 0.12 |
| ACCAAGCAAUAUUACGCAUC | -3.18 ± 0.11 | -1.74 ± 0.11 |
| ACCAAGCAAUAUUACGCCAA | -1.97 ± 0.18 | -2.71 ± 0.23 |
| ACCAAGCAAUAUUACGCGCG | -1.5 ± 0.074 | -0.523 ± 0.081 |
| ACCAAGCAAUAUUACGCGUU | -1.91 ± 0.06 | -0.292 ± 0.075 |
| ACCAAGCAAUAUUACGCUUU | -2.41 ± 0.093 | -1.45 ± 0.1 |
| ACCAAGCAAUAUUACGGAUA | -2.56 ± 0.14 | -1.56 ± 0.12 |
| ACCAAGCAAUAUUACGGCGC | 0.119 ± 0.092 | -0.413 ± 0.11 |
| ACCAAGCAAUAUUACGGGGA | -2.16 ± 0.09 | -1.85 ± 0.098 |
| ACCAAGCAAUAUUACGGGUG | -1.05 ± 0.043 | -0.597 ± 0.059 |
| ACCAAGCAAUAUUACGGUAG | -4.33 ± 0.16 | -2.5 ± 0.14 |
| ACCAAGCAAUAUUACGUAAA | -2.62 ± 0.13 | -1.38 ± 0.16 |

| Sequence | self-splicing fitness (ln) (30 °C) | self-splicing fitness (ln) (37 °C) |
| --- | --- | --- |
| ACCAAGCAAUAUUACGUAGU | -2.49 ± 0.078 | -1.75 ± 0.088 |
| ACCAAGCAAUAUUACGUCAU | -3.16 ± 0.096 | -1.71 ± 0.09 |
| ACCAAGCAAUAUUACGUCGC | -3.25 ± 0.19 | -1.27 ± 0.14 |
| ACCAAGCAAUAUUACGUGCA | -0.837 ± 0.065 | -0.466 ± 0.074 |
| ACCAAGCAAUAUUACGUGGA | -2.92 ± 0.14 | -1.49 ± 0.11 |
| ACCAAGCAAUAUUACGUUGU | -2.74 ± 0.094 | -0.985 ± 0.085 |
| ACCCAGCAAUAUUACGAACG | -3.06 ± 0.14 | -1.4 ± 0.14 |
| ACCCAGCAAUAUUACGACCC | -1.06 ± 0.13 | 0.555 ± 0.18 |
| ACCCAGCAAUAUUACGCGCA | -0.821 ± 0.061 | -0.299 ± 0.075 |
| ACCCAGCAAUAUUACGCGGG | -3.6 ± 0.13 | -3.08 ± 0.16 |
| ACCCAGCAAUAUUACGCGUA | -0.599 ± 0.07 | -1.08 ± 0.062 |
| ACCCAGCAAUAUUACGCGUC | -2.16 ± 0.088 | -1.42 ± 0.11 |
| ACCCAGCAAUAUUACGCUGA | -1.63 ± 0.087 | -0.241 ± 0.092 |
| ACCCAGCAAUAUUACGCUGU | -1.86 ± 0.075 | -0.908 ± 0.098 |
| ACCCAGCAAUAUUACGCUUA | -0.429 ± 0.07 | -0.188 ± 0.078 |
| ACCCAGCAAUAUUACGGACU | -0.261 ± 0.044 | 0.0991 ± 0.059 |
| ACCCAGCAAUAUUACGGAUC | -2.82 ± 0.085 | -1.16 ± 0.089 |
| ACCCAGCAAUAUUACGGAUU | -0.86 ± 0.048 | -0.157 ± 0.061 |
| ACCCAGCAAUAUUACGGCAC | -0.669 ± 0.079 | 0.0747 ± 0.12 |
| ACCCAGCAAUAUUACGGUUG | -3.66 ± 0.18 | -2.3 ± 0.19 |
| ACCCAGCAAUAUUACGUAAC | -1.49 ± 0.065 | -1.17 ± 0.1 |
| ACCCAGCAAUAUUACGUGGG | -3.34 ± 0.11 | -2.3 ± 0.13 |
